Where no end group is shown, it is not given here.
Columns and labels:
[1] = molecular target: T1, Recombinant Human Epidermal Growth Factor (EGF) (human, UniProt P01133 971-1023); assay: SPR (Biacore 3000, CM5), peptide immobilised, EGF injected at 62.5-1000 nM, 25 C, 1:1 Langmuir global fit
T1 construct: Bought reagent; also called EGF protein
Method: (§1) The following Test Method A was used for determining the binding affinity (KD) of SEQ ID NO: 1 for EGF and TNF-[…] Binding experiments were performed using Biacore 3000 optical biosensors equipped with research-grade CM5 sensor chips (GE Healthcare Bio-Sciences Corporation). The reagents used for the amine-coupling steps [(1-ethyl-3-(3-dimethylaminopropyl)-carbodiimide (EDC); N-hydroxysuccinimide (NHS); and ethanolamine hydrochloride-NaOH (1 M, pH 8.5)] were obtained from GE Healthcare Bio-Sciences Corporation. In order to efficiently immobilize the peptide on the sensor chips, a modified version of SEQ ID NO:1 was prepared by SPPS in which a “CK” amino acid linker sequence was added to the N-terminal end of the SEQ ID NO: 1 peptide (i.e. linker modified version of SEQ ID NO: 1 for immobilization being […]). A standard coupling protocol was employed to immobilize the linker modified version of SEQ ID NO: 1 via the lysine residue. The immobilization was performed at 25° C. using HBS-EP as the running buffer. The CM-dextran surfaces of the sensor chip flow cells were activated by a seven minute injection (20 microliters/minute) of freshly prepared 1:1 50 mM NHS: 200 mM EDC. A solution of linker modified SEQ ID NO: 1 in acetic acid (20 mM, pH 5.5) was injected to target 200 response units (RU). […]

[2] = molecular target: T2, Recombinant Human Tumor Necrosis Factor-alpha (TNF-alpha) (human, UniProt P01375 77-233); assay: SPR (Biacore 3000, CM5), peptide immobilised, TNF-alpha injected at 62.5-1000 nM, 25 C, 1:1 Langmuir global fit
T2 construct: Bought reagent; also called TNFα
Method: as §1

[3] = molecular target: T1, Recombinant Human Epidermal Growth …; assay: dot blot, peptide spotted on nitrocellulose, EGF in solution, detected with anti-EGF-IgG-HRP
Method: SEQ ID NO: 1 (1 microliter of a 10 nM solution in PBS containing 3 wt. % DMSO) and SEQ ID NO: 2 (1 microliter of a 10 nM solution in PBS containing 3 wt. % DMSO) were individually spotted at separate sites on a nitrocellulose membrane (obtained from Thermo Fisher Scientific, Waltham, Mass.) and the membrane was dried in air for about 30 minutes. The membrane was then incubated in 25 mL of blocking buffer (3 wt. % BSA in PBS) for one hour at room temperature. The membrane was washed three times (15 minutes for each wash) with 15 mL portions of fresh PBST. The washed membrane was incubated with EGF protein [10 microliters of a 100 ng/mL solution in blocking buffer (3 wt. % BSA in PBS)] with gentle agitation for one hour. The membrane was again washed three times (15 minutes for each wash) with 15 mL portions of fresh PBST. The washed membrane was incubated with anti-EGF-IgG-HRP [1:5000 dilution in 10 mL of the blocking buffer (3 wt. % BSA in PBS)] for one hour with gentle agitation. Following the incubation, the membrane was washed three times (15 minutes for each wash) with 15 mL portions of fresh PBST. The washed membrane was incubated with 10 mL of the development solution for horseradish peroxidase (TMB-Blotting Substrate Solution, Pierce-Fisher Scientific, Rockford, Ill.) with gentle agitation. The color development was stopped by adding water.

[4] = molecular target: T1, Recombinant Human Epidermal Growth …; assay: SPR (Test Method A of Example 3), peptide immobilised, EGF injected
Method: as §1

[5] = molecular target: T2, Recombinant Human Tumor Necrosis …; assay: SPR (Test Method A of Example 3), peptide immobilised, TNF-alpha injected
Method: as §1

[6] = molecular target: T1, Recombinant Human Epidermal Growth …; assay: dot blot, EGF spotted on nitrocellulose, biotinylated peptide in solution, detected with Streptavidin-HRP
Method: EGF (1 microliter of a 10 nM solution in PBS was spotted a nitrocellulose membrane (obtained from Thermo Fisher Scientific) and the membrane was dried in air for about 30 minutes. The membrane was then incubated in 15 mL of blocking buffer (3 wt. % BSA in PBS) for one hour at room temperature. The membrane was washed three times (15 minutes for each wash) with 15 mL portions of fresh PBST. The washed membrane was incubated with Biotinylated SEQ ID NO: 1 [10 mL of a 10 ng/mL solution in blocking buffer (3 wt. % BSA in PBS)] with gentle agitation for one hour. The membrane was again washed three times (15 minutes for each wash) with 15 mL portions of fresh PBST. The washed membrane was incubated with Streptavidin-HRP [1:5000 dilution in 10 mL of the blocking buffer (3 wt. % BSA in PBS)] for 30 minutes with gentle agitation. Following the incubation, the membrane was washed three times (15 minutes for each wash) with 15 mL portions of fresh PBST. The washed membrane was incubated with 10 mL of the development solution for horseradish peroxidase (TMB-Blotting Substrate Solution, Pierce-Fisher Scientific) with gentle agitation. The color development was stopped by adding water. A dark spot developed at the application site on the membrane indicating affinity of SEQ ID NO: 1 for EGF.

T1 sequence (P01133 971-1023 limits assumed): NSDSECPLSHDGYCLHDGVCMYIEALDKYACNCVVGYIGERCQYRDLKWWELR
T2 sequence (P01375 77-233 limits assumed): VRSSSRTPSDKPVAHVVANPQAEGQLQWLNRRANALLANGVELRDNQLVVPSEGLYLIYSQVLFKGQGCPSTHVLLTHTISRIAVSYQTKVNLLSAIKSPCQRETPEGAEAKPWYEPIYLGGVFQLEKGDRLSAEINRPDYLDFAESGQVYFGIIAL

## CKWFEWPYWEMNVPDVWN (also: amine-coupled to CM5 sensor chip via Lys of CK linker) [linker modified version of SEQ ID NO: 1 (CKWFEWPYWEMNVPDVWN)]
[1]
  Kd: 0.087 µM
[2]
  Kd: 75.1 µM

## Ac-WFEWPYWEMNVPDVWN-NH2 (Chemically synthesised (SPPS)) [peptide SEQ ID NO: 1 (WFEWPYWEMNVPDVWN)]
[3]
  binding result: binds

B1: linker modified version of SEQ ID NO: 2 (CKWFEWPYWE) (peptide)
peptide: CKWFEWPYWE
modifications: also: immobilised on CM5 sensor chip via Lys of linker, conjugated to iodoacetyl magnetic beads via Cys of linker
[4]
  Kd: 0.466 µM
[5]
  Kd: 340 µM

## WFEWPYWEMNVPDVWN (also: biotinylated, site not given here) [Biotinylated SEQ ID NO: 1]
[6]
  binding result: binds

## Ac-WFEWPYWE-NH2 (Chemically synthesised (SPPS)) [peptide SEQ ID NO: 2 (WFEWPYWE)]
[3]
  binding result: binds

Reference: patent publication US20200123212A1 (3M INNOVATIVE PROPERTIES, published 2020)
